# Changes are numbered by the printed parent chain.
# T1: cynomolgus monkey E-selectin extracellular domain with 10 His purification tail (cynomolgus monkey, UniProt P16581 22-554 (human entry))
# T1 construct: also called cynomolgus E-selectin; truncated cynomolgus monkey E-selectin
# T1 chain: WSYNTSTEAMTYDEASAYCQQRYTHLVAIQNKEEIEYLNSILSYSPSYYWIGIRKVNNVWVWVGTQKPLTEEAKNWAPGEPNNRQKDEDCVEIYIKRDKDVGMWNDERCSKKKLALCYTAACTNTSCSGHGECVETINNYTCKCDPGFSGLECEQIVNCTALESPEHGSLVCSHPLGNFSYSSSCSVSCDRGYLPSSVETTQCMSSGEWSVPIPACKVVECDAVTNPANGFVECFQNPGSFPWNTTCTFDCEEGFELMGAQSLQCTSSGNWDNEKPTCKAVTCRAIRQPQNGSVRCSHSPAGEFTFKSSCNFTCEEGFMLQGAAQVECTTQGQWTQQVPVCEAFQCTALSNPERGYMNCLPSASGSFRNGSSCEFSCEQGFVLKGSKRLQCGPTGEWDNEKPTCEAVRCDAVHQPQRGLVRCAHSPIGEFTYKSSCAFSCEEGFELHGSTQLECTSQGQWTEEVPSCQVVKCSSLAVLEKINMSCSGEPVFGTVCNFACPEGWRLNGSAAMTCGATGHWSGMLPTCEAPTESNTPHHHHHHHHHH
# T2: human E-selectin extracellular domain with 10 His purification tail (human, UniProt P16581 22-556)
# T2 construct: also called soluable human E-selectin extracellular domain; rhE-Selectin
# T2 sequence: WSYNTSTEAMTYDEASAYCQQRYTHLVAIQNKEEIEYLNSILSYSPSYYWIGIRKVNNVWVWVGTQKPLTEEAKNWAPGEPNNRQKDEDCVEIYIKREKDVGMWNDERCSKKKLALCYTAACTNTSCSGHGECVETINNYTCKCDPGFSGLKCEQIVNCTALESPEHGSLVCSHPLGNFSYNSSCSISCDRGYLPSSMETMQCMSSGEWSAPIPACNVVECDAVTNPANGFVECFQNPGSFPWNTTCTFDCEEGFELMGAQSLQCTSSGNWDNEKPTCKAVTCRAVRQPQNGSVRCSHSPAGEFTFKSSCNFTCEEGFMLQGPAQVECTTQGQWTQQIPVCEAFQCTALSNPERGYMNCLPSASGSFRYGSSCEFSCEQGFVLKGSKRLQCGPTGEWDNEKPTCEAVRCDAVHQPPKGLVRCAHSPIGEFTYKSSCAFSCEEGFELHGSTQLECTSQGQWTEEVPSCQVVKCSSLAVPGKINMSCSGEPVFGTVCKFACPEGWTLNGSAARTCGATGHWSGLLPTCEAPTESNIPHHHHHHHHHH
# B1: humanized anti-E-selectin antibody 0841 (antibody, human IgG1, kappa, V domains shown)
# VH: EVQLVESGGGLVQPGGSLRLSCAASGYNIRSSYMHWVRQAPGKGLEWVARIDPANGNTIYAEKFKIRFTISADNAKNSAYLQMNSLRAEDTAVYYCAMDLYSTSEYWGQGTLVTVSS
# VL: DIQMTQSPSSLSASVGDRVTITCKTSQNINRYLNWYQQKPGKAPKLLIYNANSLQTGVPSRFSGSGSGTDFTLTISSLQPEDFATYFCLQDNSWPLTFGQGTKVEIKR
# notes: effector-null human IgG1, kappa
# B2: optimized anti-E-selectin antibody 1444 (antibody, human IgG1, kappa, V domains shown)
# VH: B1 VH with N28A, S32A, A61V, E62D, K63S, F64V, K65T, I66G
# VL: B1 VL with N30E, N50A, N52S, T56S, S93A
# notes: as for B1
# How the values were obtained:
# [1] = target: T1, cynomolgus monkey E-selectin …; experiment: SPR, antibody captured, E-selectin analyte
# Experimental: (§1) Final immobilization level of the capture antibody was approximately 10,000 resonance units (RU). The running buffer for immobilization and kinetics was HBS-EP+(10 mM 4-(2-hydroxyethyl)-1-piperazineethanesulfonic acid (HEPES) pH 7.4, 150 mM sodium chloride, 3 mM ethylenediaminetetraacetic acid (EDTA), 0.05% (v/v) Tween-20).
# (§2) To characterize binding of antibodies to human, cynomolgus monkey, and mouse E-selectin, an antibody was diluted to 0.5 μg/mL in HBS-EP+ and captured by the anti-human IgG immobilized on flow cells 2, 3 and 4 for 30 seconds to 1 minute at a flow rate of 10 μL/minute to achieve a capture level of 70 to 300 RU. Flow cell 1 was used as a reference surface. […] HBS-EP+ buffer cycles collected for each captured antibody were used for double-referencing (Myszka D G. J. Mol. Recognition 1999; 12(5):279-84). At the end of each cycle, the entire anti-IgG surface was regenerated by a 30 second pulse of 3 M MgCl₂ and a 30 second pulse of ionic buffer (1.83 M MgCl₂, 0.92 M Urea, 1.83 M Guanidine HCl, pH 7.4) (Andersson K. Analy. Chem. 1999; 71(13): 2475-81). Kinetic assays were conducted at 25° C. at a collection rate of 10 Hertz (Hz) on a BIAcore™ T200 instrument (GE Healthcare). Rate constants and affinities were determined by fitting the data to a 1:1 binding model in BIAcore™ T200 Evaluation software version 3.0 (GE Healthcare).
# (§3) This was done by first binding the antibody to immobilized anti-human IgG. After antibody capture, dilutions of the E-selectin proteins were flowed over and the association rate constant (ka), disassociation rate constant (kd), t½, and KD values were determined for binding to human and cynomolgus E-selectin (Table 13).
# [2] = target: T2, human E-selectin extracellular domain …; experiment: SPR, antibody captured, E-selectin analyte
# Experimental: as §1, §2, §3
# [3] = target: T1, cynomolgus monkey E-selectin …; experiment: SPR, soluble recombinant protein
# Experimental: as §2
# [4] = target: T2, human E-selectin extracellular domain …; experiment: SPR, soluble recombinant protein
# Experimental: as §2
Binder,Kd [1] [nM],koff [1] [s⁻¹],kon [1] [M⁻¹ s⁻¹],t½ [1] [s],Kd [2] [nM],koff [2] [s⁻¹],kon [2] [M⁻¹ s⁻¹],t½ [2] [s],Kd [3] [nM],Kd [4] [nM]
B1,138,0.0252,182000,27.6,92.8,0.0237,255000,29.3,,
B2,,,,,,,,,64.9,68.4
